Results: patent US20020055615A1
Ends that are not written are not given here.

Key:
[1] = molecular target: AM receptor (AM-R) on human tumor cell lines (human); test: cell-based or functional assay
[2] = molecular target: AM receptor (AM-R) on human tumor cell lines (human); test: receptor binding on MCF-7 cells
[3] = molecular target: AM receptor (AM-R) on human tumor cell lines (human); test: displacement of 125I-AM from MCF-7 cells by unlabelled AM
[4] = molecular target: AM receptor (AM-R) on human tumor cell lines (human); test: 125I-AM (0.2 nM per 5×10^5 cells) binding to NCI-H1264 cells

- increase in cellular cAMP (ED50) [1]: 5 nM
- maximum elevation of cellular cAMP (fold of control) [1]: 3
- Kd [2]: 2 nM
- IC50 [3]: 10 nM
- radioactivity bound (cpm) [4]: 2260 cpm
B1: adrenomedullin (AM) (peptide, UniProt P35318 95-146, looked up)
peptide: YRQSMNNFQGLRSFGCRFGTCTVQKLAHQIYQFTDKDKDNVAPRSKISPQGY-NH2
modifications: ends and bridges not checked; also: 125I-labelled as tracer in receptor assays
